From patent US20250011368A1, “DLL3 TARGETING PEPTIDES AND CONSTRUCTS THEREOF” (MARIANA ONCOLOGY INC., priority 2023, published 2025)
Numbered stars: 1 amine (or outer) side, 2 acyl side, 3 side chain; on linkers, the order of the positions; unused ones are H or OH. Bridge positions count the residues as written; N and C are the ends. Square brackets hold non-standard residues; d marks the D form. * marks the point of attachment. Ala(piperidin-4-yl) = O=C([C@H](CC1CCN([*:3])CC1)N[*:1])[*:2]; DOTA = O=C(O)CN1CCN(CC(=O)O)CCN(CC(=O)*)CCN(CC(=O)O)CC1; Trp(5-F) = N[C@@H](Cc1c[nH]c2ccc(F)cc12)C(=O)O; Trp(7-aza) = N[C@@H](Cc1c[nH]c2ncccc12)C(=O)O; Pro(trans-4-F) = O=C(O)[C@@H]1C[C@@H](F)CN1; 2Nal = N[C@@H](Cc1ccc2ccccc2c1)C(=O)O; 4Pal = N[C@@H](Cc1ccncc1)C(=O)O; Cha = N[C@@H](CC1CCCCC1)C(=O)O

Assays:
[1] = target: Biotinylated human DLL3 (Delta Like Canonical Notch Ligand 3) (human) (UniProt Q9NYJ7); assay: SPR; letter grade, key in paragraph 614
[2] = target: DLL3 on CT26.DLL3 cells (Homo sapiens (Human)) (UniProt Q9NYJ7); assay: 177Lu-peptide bound to CT26.DLL3 cells, gamma counting; letter grade, key in paragraph 629
[3] = target: T1, DLL3 on SHP-77 cells (human, UniProt Q9NYJ7 27-618); assay: 177Lu-peptide bound to SHP-77 cells, gamma counting; letter grade, key in paragraph 629
T1 construct: SHP-77 cells are human-derived, non-engineered SCLC cells
T1 sequence: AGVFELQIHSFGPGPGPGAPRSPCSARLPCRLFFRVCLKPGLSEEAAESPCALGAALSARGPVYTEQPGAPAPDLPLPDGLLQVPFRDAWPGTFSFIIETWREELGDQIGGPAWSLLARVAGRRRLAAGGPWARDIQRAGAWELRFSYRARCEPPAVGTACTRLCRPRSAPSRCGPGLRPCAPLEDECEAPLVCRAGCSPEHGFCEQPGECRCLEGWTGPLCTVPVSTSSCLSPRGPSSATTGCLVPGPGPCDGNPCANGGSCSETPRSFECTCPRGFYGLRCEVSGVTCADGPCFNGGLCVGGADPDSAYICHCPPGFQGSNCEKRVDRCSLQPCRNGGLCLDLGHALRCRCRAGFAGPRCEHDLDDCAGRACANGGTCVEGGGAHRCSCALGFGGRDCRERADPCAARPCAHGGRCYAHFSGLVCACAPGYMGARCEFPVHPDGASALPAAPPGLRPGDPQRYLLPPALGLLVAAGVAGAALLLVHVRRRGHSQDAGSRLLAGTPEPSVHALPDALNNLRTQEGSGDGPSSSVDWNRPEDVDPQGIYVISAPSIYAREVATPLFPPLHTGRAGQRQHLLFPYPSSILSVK
Protocol: The study was conducted using SHP-77, CT26.WT, and CT26.DLL3 cells (Table 7) Adherent cell studies: The cells were cultured in appropriate culture media (20 mL) in tissue culture treated T150 flasks at 37° C. and 5% CO2. Adherent cells were detached (60-70% confluent) using 5 mL Versene at 37° C. for 3 minutes. After confirming the viability using countess and count of detached cells using Trypan blue, the cells were centrifuged at 4° C. for 5 minutes (1,000 rpm). The cell pellet obtained was washed once with PBS and resuspended in 1% PBSA to obtain the desired cell concentration (5-25 million cells/mL).
Total uptake: Cells were incubated with 300 μL (0.8 μCi) of the incubation buffer (containing radiolabeled peptide [¹⁷⁷Lu] Lu-test peptide) for 1 hour at 37° C. (Table 8). Post incubation, the cells were pelleted and washed 2 times using cold PBS+1% BSA. The supernatant and washes were combined and counted together as “unbound fraction” in a gamma counter. The cells were then resuspended in 300 μL of 1% PBS+1% BSA and counted in the gamma counter as “bound fraction”.

[4] = target: T2, Biotinylated human DLL3 (Delta Like Canonical Notch Ligand 3) (human, UniProt Q9NYJ7 27-492, limits assumed, biotinylated (site not stated)); assay: SPR; letter grade, key in paragraph 614; lower limit of grade B
T2 construct: also called Delta-like protein 3; biotinylated target ligand human DLL3
T2 sequence: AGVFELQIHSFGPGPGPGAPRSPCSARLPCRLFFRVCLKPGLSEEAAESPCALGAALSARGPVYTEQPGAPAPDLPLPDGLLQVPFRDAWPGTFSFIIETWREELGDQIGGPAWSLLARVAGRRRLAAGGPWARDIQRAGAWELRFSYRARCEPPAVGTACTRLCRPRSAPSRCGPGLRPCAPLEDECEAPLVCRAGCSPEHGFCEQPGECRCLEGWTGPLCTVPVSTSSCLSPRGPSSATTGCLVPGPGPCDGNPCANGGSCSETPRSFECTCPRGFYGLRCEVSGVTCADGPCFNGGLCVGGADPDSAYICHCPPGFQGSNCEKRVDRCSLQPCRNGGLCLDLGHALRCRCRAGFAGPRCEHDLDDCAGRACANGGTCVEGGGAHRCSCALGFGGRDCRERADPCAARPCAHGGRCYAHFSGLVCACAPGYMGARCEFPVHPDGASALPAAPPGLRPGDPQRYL
Protocol: (§1) Biotinylated target ligand human DLL3 was immobilized on a streptavidin sensor chip. A reference surface was set up for nonspecific binding and refractive index changes. For analysis of the kinetics of interactions, varying concentrations of samples were injected at a flow rate of 100 μL/minute using running buffer containing 20 mM phosphate buffer with 2.7 mM KCl, 137 mM NaCl, 0.05% Surfactant P20 and 2% DMSO. Sensorgram curves were fitted with 1:1 binding model, and affinity and kinetic parameters were obtained using Biacore Insight evaluation 4.0. software.

[5] = target: T2, Biotinylated human DLL3 (Delta Like …); assay: SPR; letter grade, key in paragraph 614; upper limit of grade B
Protocol: as §1

[6] = target: T2, Biotinylated human DLL3 (Delta Like …); assay: SPR; letter grade, key in paragraph 614
Protocol: as §1

Ac-[Trp(5-F)]T[Cha]CNN[2Nal]HDC[Trp(7-aza)][Pro(trans-4-F)][dK](DOTA)-NH2 (disulfide 4-10) [Cpd No. 245]
Kd [1]: < 1 nM

Ac-WTIC[Ala(piperidin-4-yl)]N[2Nal]KDCWP[dK](DOTA)-NH2 (disulfide 4-10; not fully specified (residue 8); also: 177Lu chelated in DOTA) [[177Lu]Lu-labelled Cpd No. 326]
% Binding [2]: < 25%
% Binding [3]: < 25%

Ac-[Trp(5-F)]T[Cha]CNN[2Nal]HDC[Trp(7-aza)][Pro(trans-4-F)][dK](DOTA)-NH2 (disulfide 4-10; also: 177Lu complexed in the DOTA chelator) [[177Lu]Lu-labelled Cpd No. 245]
% Binding [2]: < 25%

Ac-WTICNNWHDCWP[dK](DOTA)-NH2 (disulfide 4-10) [Cpd No. 23]
Kd [4]: > 1 nM
Kd [5]: ≤ 10 nM

B1: Cpd No. 252 (peptide)
peptide: Ac-WTICNN[2Nal]HDCWP[dK]-NH2
modifications: disulfide 4-10; not fully specified (residue 13); printed as Ac-W-T-I-C(3)-N-N-(2Nal)-H-D-C(3)-W-P-{D-Lys[PEG8-D-Lys(DOTA)-PEG12-COCH2Ph-4Br]}-NH2, disulfide C(3)-C(3)
Kd [6]: ≤ 1 nM

B2: Cpd No. 367 (peptide)
peptide: Ac-WTICNN[2Nal][4Pal]DCWP[dK](DOTA)-NH2
modifications: disulfide 4-10
SMILES: CC[C@H](C)[C@H](NC(=O)[C@@H](NC(=O)[C@H](Cc1c[nH]c2ccccc12)NC(C)=O)[C@@H](C)O)C(=O)N[C@H]1CSSC[C@@H](C(=O)N[C@@H](Cc2c[nH]c3ccccc23)C(=O)N2CCC[C@H]2C(=O)N[C@H](CCCCNC(=O)CN2CCN(CC(=O)O)CCN(CC(=O)O)CCN(CC(=O)O)CC2)C(N)=O)NC(=O)[C@H](CC(=O)O)NC(=O)[C@H](Cc2ccncc2)NC(=O)[C@H](Cc2ccc3ccccc3c2)NC(=O)[C@H](CC(N)=O)NC(=O)[C@H](CC(N)=O)NC1=O
Kd [6]: ≤ 1 nM

Ac-WTICNN[2Nal][4Pal]DCWP[dK](DOTA)-NH2 (disulfide 4-10; also: natLu in the DOTA chelator, * = [natLu]Lu-labelled peptide) [[natLu]Lu-labelled Cpd No. 367]
Kd [6]: ≤ 1 nM

B3: Cpd No. 451 (peptide)
peptide: Ac-WTICKN[2Nal]HDCWP[dK](DOTA)-NH2
modifications: disulfide 4-10
SMILES: CC[C@H](C)[C@H](NC(=O)[C@@H](NC(=O)[C@H](Cc1c[nH]c2ccccc12)NC(C)=O)[C@@H](C)O)C(=O)N[C@H]1CSSC[C@@H](C(=O)N[C@@H](Cc2c[nH]c3ccccc23)C(=O)N2CCC[C@H]2C(=O)N[C@H](CCCCNC(=O)CN2CCN(CC(=O)O)CCN(CC(=O)O)CCN(CC(=O)O)CC2)C(N)=O)NC(=O)[C@H](CC(=O)O)NC(=O)[C@H](Cc2c[nH]cn2)NC(=O)[C@H](Cc2ccc3ccccc3c2)NC(=O)[C@H](CC(N)=O)NC(=O)[C@H](CCCCN)NC1=O
Kd [6]: ≤ 1 nM
